Data published in patent US20140206609A1 (Sanofi, published 2014).
*1 amine or outer side, *2 acyl side, *3 side chain or, on linkers, in order; H or OH if unused. Where no end group is shown, it is not given here. Side-chain parts run from the residue outwards. [ ]: non-standard residue; d: D form. The star is where a group is joined. γGlu = O=C(O)[C@H](CCC(=O)[*:2])N[*:1]; Palmitoyl = CCCCCCCCCCCCCCCC(=O)*; Aib = CC(C)(N)C(=O)O

Legend:
Test in all cases: cell-based or functional assay
human GLP-1 receptor = human GLP-1 receptor (human, UniProt P43220 24-463)
human GIP receptor = molecular target: T1, human GIP receptor (human, UniProt P48546 22-466)
T1 sequence (looked up): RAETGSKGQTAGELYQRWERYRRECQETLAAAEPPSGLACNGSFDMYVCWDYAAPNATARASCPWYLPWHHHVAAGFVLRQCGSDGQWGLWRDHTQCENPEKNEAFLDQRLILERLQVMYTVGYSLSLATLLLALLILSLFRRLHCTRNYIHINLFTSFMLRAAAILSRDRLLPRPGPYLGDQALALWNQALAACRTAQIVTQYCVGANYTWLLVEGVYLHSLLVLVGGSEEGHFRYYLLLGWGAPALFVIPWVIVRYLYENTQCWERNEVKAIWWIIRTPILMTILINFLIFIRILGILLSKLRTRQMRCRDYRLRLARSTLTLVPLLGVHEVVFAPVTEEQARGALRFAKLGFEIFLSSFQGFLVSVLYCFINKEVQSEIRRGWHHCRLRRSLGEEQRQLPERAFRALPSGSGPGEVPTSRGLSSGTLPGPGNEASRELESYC

human glucagon receptor = human glucagon receptor (human, UniProt P47871 26-477)
Chain of human glucagon receptor (P47871 26-477): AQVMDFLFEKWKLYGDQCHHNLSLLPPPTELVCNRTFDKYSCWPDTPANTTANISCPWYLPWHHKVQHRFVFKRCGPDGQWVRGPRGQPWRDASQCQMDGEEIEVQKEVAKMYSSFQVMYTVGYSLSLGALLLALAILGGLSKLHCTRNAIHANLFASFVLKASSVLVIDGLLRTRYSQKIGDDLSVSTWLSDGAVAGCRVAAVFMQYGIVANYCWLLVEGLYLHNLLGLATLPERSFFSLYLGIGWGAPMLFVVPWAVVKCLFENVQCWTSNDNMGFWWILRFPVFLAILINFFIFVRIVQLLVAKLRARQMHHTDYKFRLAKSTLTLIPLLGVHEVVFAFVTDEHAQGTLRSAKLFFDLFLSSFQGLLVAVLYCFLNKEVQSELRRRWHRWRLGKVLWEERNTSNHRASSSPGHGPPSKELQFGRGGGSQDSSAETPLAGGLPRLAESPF

Row | Binder | EC50 hGLP-1 R [pM] (human GLP-1 receptor) | EC50 hGIP R [pM] (human GIP receptor) | EC50 hGLUC R [pM] (human glucagon receptor)
1 | Y[Aib]EGTFTSDLSIQK([γGlu-Palmitoyl])EKRAAQEFIEWLKAGGPSSGAPPPS-NH2 (N-terminus assumed; SMILES CCCCCCCCCCCCCCCC(=O)N[C@@H](CCC(=O)NCCCC[C@H](NC(=O)[C@H](CCC(N)=O)NC(=O)[C@@H](NC(=O)[C@H](CO)NC(=O)[C@H](CC(C)C)NC(=O)[C@H](CC(=O)O)NC(=O)[C@H](CO)NC(=O)[C@@H](NC(=O)[C@H](Cc1ccccc1)NC(=O)[C@@H](NC(=O)CNC(=O)[C@H](CCC(=O)O)NC(=O)C(C)(C)NC(=O)[C@@H](N)Cc1ccc(O)cc1)[C@@H](C)O)[C@@H](C)O)[C@@H](C)CC)C(=O)N[C@@H](CCC(=O)O)C(=O)N[C@@H](CCCCN)C(=O)N[C@@H](CCCNC(=N)N)C(=O)N[C@@H](C)C(=O)N[C@@H](C)C(=O)N[C@@H](CCC(N)=O)C(=O)N[C@@H](CCC(=O)O)C(=O)N[C@@H](Cc1ccccc1)C(=O)N[C@H](C(=O)N[C@@H](CCC(=O)O)C(=O)N[C@@H](Cc1c[nH]c2ccccc12)C(=O)N[C@@H](CC(C)C)C(=O)N[C@@H](CCCCN)C(=O)N[C@@H](C)C(=O)NCC(=O)NCC(=O)N1CCC[C@H]1C(=O)N[C@@H](CO)C(=O)N[C@@H](CO)C(=O)NCC(=O)N[C@@H](C)C(=O)N1CCC[C@H]1C(=O)N1CCC[C@H]1C(=O)N1CCC[C@H]1C(=O)N[C@@H](CO)C(N)=O)[C@@H](C)CC)C(=O)O) [SEQ ID NO: 34] | 4.6 pM | 22.2 pM | 11600 pM
2 | Y[Aib]EGTFTSDLSIQK([γGlu-Palmitoyl])ESRAA[Aib]EFIEWLKAGGPSSGAPPPS-NH2 (N-terminus assumed; SMILES CCCCCCCCCCCCCCCC(=O)N[C@@H](CCC(=O)NCCCC[C@H](NC(=O)[C@H](CCC(N)=O)NC(=O)[C@@H](NC(=O)[C@H](CO)NC(=O)[C@H](CC(C)C)NC(=O)[C@H](CC(=O)O)NC(=O)[C@H](CO)NC(=O)[C@@H](NC(=O)[C@H](Cc1ccccc1)NC(=O)[C@@H](NC(=O)CNC(=O)[C@H](CCC(=O)O)NC(=O)C(C)(C)NC(=O)[C@@H](N)Cc1ccc(O)cc1)[C@@H](C)O)[C@@H](C)O)[C@@H](C)CC)C(=O)N[C@@H](CCC(=O)O)C(=O)N[C@@H](CO)C(=O)N[C@@H](CCCNC(=N)N)C(=O)N[C@@H](C)C(=O)N[C@@H](C)C(=O)NC(C)(C)C(=O)N[C@@H](CCC(=O)O)C(=O)N[C@@H](Cc1ccccc1)C(=O)N[C@H](C(=O)N[C@@H](CCC(=O)O)C(=O)N[C@@H](Cc1c[nH]c2ccccc12)C(=O)N[C@@H](CC(C)C)C(=O)N[C@@H](CCCCN)C(=O)N[C@@H](C)C(=O)NCC(=O)NCC(=O)N1CCC[C@H]1C(=O)N[C@@H](CO)C(=O)N[C@@H](CO)C(=O)NCC(=O)N[C@@H](C)C(=O)N1CCC[C@H]1C(=O)N1CCC[C@H]1C(=O)N1CCC[C@H]1C(=O)N[C@@H](CO)C(N)=O)[C@@H](C)CC)C(=O)O) [SEQ ID NO: 35] | 6.9 pM | 7.3 pM | 39100 pM
3 | Y[Aib]QGTFTSDLSIQK([γGlu-Palmitoyl])DSRAAQEFIEWLKAGGPSSGAPPPS-NH2 (N-terminus assumed; SMILES CCCCCCCCCCCCCCCC(=O)N[C@@H](CCC(=O)NCCCC[C@H](NC(=O)[C@H](CCC(N)=O)NC(=O)[C@@H](NC(=O)[C@H](CO)NC(=O)[C@H](CC(C)C)NC(=O)[C@H](CC(=O)O)NC(=O)[C@H](CO)NC(=O)[C@@H](NC(=O)[C@H](Cc1ccccc1)NC(=O)[C@@H](NC(=O)CNC(=O)[C@H](CCC(N)=O)NC(=O)C(C)(C)NC(=O)[C@@H](N)Cc1ccc(O)cc1)[C@@H](C)O)[C@@H](C)O)[C@@H](C)CC)C(=O)N[C@@H](CC(=O)O)C(=O)N[C@@H](CO)C(=O)N[C@@H](CCCNC(=N)N)C(=O)N[C@@H](C)C(=O)N[C@@H](C)C(=O)N[C@@H](CCC(N)=O)C(=O)N[C@@H](CCC(=O)O)C(=O)N[C@@H](Cc1ccccc1)C(=O)N[C@H](C(=O)N[C@@H](CCC(=O)O)C(=O)N[C@@H](Cc1c[nH]c2ccccc12)C(=O)N[C@@H](CC(C)C)C(=O)N[C@@H](CCCCN)C(=O)N[C@@H](C)C(=O)NCC(=O)NCC(=O)N1CCC[C@H]1C(=O)N[C@@H](CO)C(=O)N[C@@H](CO)C(=O)NCC(=O)N[C@@H](C)C(=O)N1CCC[C@H]1C(=O)N1CCC[C@H]1C(=O)N1CCC[C@H]1C(=O)N[C@@H](CO)C(N)=O)[C@@H](C)CC)C(=O)O) [SEQ ID NO: 29] | 7 pM | 127 pM | 46.8 pM
4 | Y[Aib]EGTFTSDLSIQK([γGlu-Palmitoyl])EKRAAQDFIEWLKAGGPSSGAPPPS-NH2 (N-terminus assumed; SMILES CCCCCCCCCCCCCCCC(=O)N[C@@H](CCC(=O)NCCCC[C@H](NC(=O)[C@H](CCC(N)=O)NC(=O)[C@@H](NC(=O)[C@H](CO)NC(=O)[C@H](CC(C)C)NC(=O)[C@H](CC(=O)O)NC(=O)[C@H](CO)NC(=O)[C@@H](NC(=O)[C@H](Cc1ccccc1)NC(=O)[C@@H](NC(=O)CNC(=O)[C@H](CCC(=O)O)NC(=O)C(C)(C)NC(=O)[C@@H](N)Cc1ccc(O)cc1)[C@@H](C)O)[C@@H](C)O)[C@@H](C)CC)C(=O)N[C@@H](CCC(=O)O)C(=O)N[C@@H](CCCCN)C(=O)N[C@@H](CCCNC(=N)N)C(=O)N[C@@H](C)C(=O)N[C@@H](C)C(=O)N[C@@H](CCC(N)=O)C(=O)N[C@@H](CC(=O)O)C(=O)N[C@@H](Cc1ccccc1)C(=O)N[C@H](C(=O)N[C@@H](CCC(=O)O)C(=O)N[C@@H](Cc1c[nH]c2ccccc12)C(=O)N[C@@H](CC(C)C)C(=O)N[C@@H](CCCCN)C(=O)N[C@@H](C)C(=O)NCC(=O)NCC(=O)N1CCC[C@H]1C(=O)N[C@@H](CO)C(=O)N[C@@H](CO)C(=O)NCC(=O)N[C@@H](C)C(=O)N1CCC[C@H]1C(=O)N1CCC[C@H]1C(=O)N1CCC[C@H]1C(=O)N[C@@H](CO)C(N)=O)[C@@H](C)CC)C(=O)O) [SEQ ID NO: 33] | 6.4 pM | 9.1 pM | 12900 pM
5 | Y[Aib]EGTFTSDLSIQK([γGlu-Palmitoyl])DKRAAQDFIEWLKAGGPSSGAPPPS-NH2 (N-terminus assumed; SMILES CCCCCCCCCCCCCCCC(=O)N[C@@H](CCC(=O)NCCCC[C@H](NC(=O)[C@H](CCC(N)=O)NC(=O)[C@@H](NC(=O)[C@H](CO)NC(=O)[C@H](CC(C)C)NC(=O)[C@H](CC(=O)O)NC(=O)[C@H](CO)NC(=O)[C@@H](NC(=O)[C@H](Cc1ccccc1)NC(=O)[C@@H](NC(=O)CNC(=O)[C@H](CCC(=O)O)NC(=O)C(C)(C)NC(=O)[C@@H](N)Cc1ccc(O)cc1)[C@@H](C)O)[C@@H](C)O)[C@@H](C)CC)C(=O)N[C@@H](CC(=O)O)C(=O)N[C@@H](CCCCN)C(=O)N[C@@H](CCCNC(=N)N)C(=O)N[C@@H](C)C(=O)N[C@@H](C)C(=O)N[C@@H](CCC(N)=O)C(=O)N[C@@H](CC(=O)O)C(=O)N[C@@H](Cc1ccccc1)C(=O)N[C@H](C(=O)N[C@@H](CCC(=O)O)C(=O)N[C@@H](Cc1c[nH]c2ccccc12)C(=O)N[C@@H](CC(C)C)C(=O)N[C@@H](CCCCN)C(=O)N[C@@H](C)C(=O)NCC(=O)NCC(=O)N1CCC[C@H]1C(=O)N[C@@H](CO)C(=O)N[C@@H](CO)C(=O)NCC(=O)N[C@@H](C)C(=O)N1CCC[C@H]1C(=O)N1CCC[C@H]1C(=O)N1CCC[C@H]1C(=O)N[C@@H](CO)C(N)=O)[C@@H](C)CC)C(=O)O) [SEQ ID NO: 31] | 6 pM | 6.5 pM | 3080 pM
6 | Y[Aib]QGTFTSDLSIQK([γGlu-Palmitoyl])DSRAA[Aib]DFIEWLKAGGPSSGAPPPS-NH2 (N-terminus assumed; SMILES CCCCCCCCCCCCCCCC(=O)N[C@@H](CCC(=O)NCCCC[C@H](NC(=O)[C@H](CCC(N)=O)NC(=O)[C@@H](NC(=O)[C@H](CO)NC(=O)[C@H](CC(C)C)NC(=O)[C@H](CC(=O)O)NC(=O)[C@H](CO)NC(=O)[C@@H](NC(=O)[C@H](Cc1ccccc1)NC(=O)[C@@H](NC(=O)CNC(=O)[C@H](CCC(N)=O)NC(=O)C(C)(C)NC(=O)[C@@H](N)Cc1ccc(O)cc1)[C@@H](C)O)[C@@H](C)O)[C@@H](C)CC)C(=O)N[C@@H](CC(=O)O)C(=O)N[C@@H](CO)C(=O)N[C@@H](CCCNC(=N)N)C(=O)N[C@@H](C)C(=O)N[C@@H](C)C(=O)NC(C)(C)C(=O)N[C@@H](CC(=O)O)C(=O)N[C@@H](Cc1ccccc1)C(=O)N[C@H](C(=O)N[C@@H](CCC(=O)O)C(=O)N[C@@H](Cc1c[nH]c2ccccc12)C(=O)N[C@@H](CC(C)C)C(=O)N[C@@H](CCCCN)C(=O)N[C@@H](C)C(=O)NCC(=O)NCC(=O)N1CCC[C@H]1C(=O)N[C@@H](CO)C(=O)N[C@@H](CO)C(=O)NCC(=O)N[C@@H](C)C(=O)N1CCC[C@H]1C(=O)N1CCC[C@H]1C(=O)N1CCC[C@H]1C(=O)N[C@@H](CO)C(N)=O)[C@@H](C)CC)C(=O)O) [SEQ ID NO: 30] | 12 pM | 22.1 pM | 226 pM
